# Reference: the supplement of paper PMC12042874
# ± gives the uncertainty stated by the source.
# Experiment: amyloid nucleation score (Sup35N fusion, yeast selection) (log enrichment); library NNK2; higher = more nucleation; inactive = no reads after selection
# Summary of the method: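 In psi-negative yeast, Sup35N fusions carrying peptides of 20 random codons were induced with 100 μM copper sulfate for 24 hours. The cells then grew 7 days at 30°C on medium lacking adenine and uracil, and plasmid inserts from input and output were Illumina-sequenced, excluding sequences with under 100 input reads. Nucleation score is the DiMSum log enrichment of output over input reads, centred on the mode score of non-aggregating sequences.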
row,Substance,amyloid nucleation score
1,MGFSRTLYIRKDIFLFVLHL,-0.759 ± 0.64
2,MGMFKTCVHLNCVYR,5.229 ± 0.05
3,MGSLSHYRAQDRLREQLWLW,0.458 ± 0.19
4,MGVLEGLSWVSRNKISGVLQ,-0.191 ± 0.55
5,MHASDDMLKCWYKCAEVRPA,1.29 ± 0.31
6,MHEEP,1.29 ± 0.23
7,MHRFRMSLVLRRGSGLVGWF,-0.081 ± 1.1
8,MHSLCRM,-1.24 ± 0.53
9,MIAVV,0.861 ± 0.2
10,MIFSEFGAEVIVGWFVVSVG,-0.9 ± 0.76
11,MINFHKHGLTI,-0.482 ± 0.35
12,MINYCREIQFRM,3.63 ± 0.12
13,MIPKVFSIRKSVGIYWNAEY,-1.04 ± 0.39
14,MIQHEKQMWWADNSYP,0.483 ± 0.24
15,MIQHICELLG,-0.317 ± 0.32
16,MKGNGCNIFRQGTWRDSFAD,-0.715 ± 0.41
17,MKLYSISELLFKFLLHSLCA,inactive
18,MLDVCGVLHLPRRSLIAFVA,1.27 ± 0.21
19,MLFGFFGIPRGSRVLFSNV,inactive
20,MLFLMGPVWTCFKICNSLLT,0.333 ± 0.23
21,MLFNLYISTSTLVDRS,1.23 ± 0.17
22,MLGRKHSWVA,1.67 ± 0.33
23,MLGRVKTKVACYG,0.409 ± 0.64
24,MLNNRLNPLFARESGELLGA,0.871 ± 0.15
25,MLNSVLAQAMRH,1.28 ± 0.53

row,Substance,amyloid nucleation score
1,MLPIRRIMQQFHGKPYNCYT,inactive
2,MLRGSRWPSSGTFSCDDSKR,-0.038 ± 0.45
3,MLSFHLSVVAETMTWWSTRY,0.857 ± 0.19
4,MLSIVNCNGSRVGYWTDS,5.85 ± 0.08
5,MLWVYWLGCHVRSYNLGYLR,-0.255 ± 0.63
6,MLWWLYLTDYSISGYNVGKM,0.433 ± 0.74
7,MLYSWKFPEVASGNLKCRLE,-0.24 ± 0.32
8,MMDRV,-0.092 ± 0.65
9,MMLSYILR,0.223 ± 0.77
10,MMMLLG,0.505 ± 0.13
11,MNHTDGQHCFVSWRCLDGWR,0.705 ± 0.66
12,MNKCFFTSRSEG,inactive
13,MNLSGVQVAMFSSQPVALTG,0.097 ± 0.63
14,MNRPVHSDYVYSFSLEFVVV,-0.089 ± 1.1
15,MNWHTSYCLFDVRAKVAGNV,-0.393 ± 1.1
16,MNYRCKYAQDTHLSEQSSQE,-0.799 ± 0.33
17,MPAFWSWSERGLSVRILGPA,3.05 ± 0.084
18,MPGMVTSCTVFCNQFKMETC,6.457 ± 0.061
19,MPPFGNDCTDREDVCMGRFV,inactive
20,MQTCYSDQMDFVYEAYYCTW,1.7 ± 0.1
21,MRKMRTMNAQWSWIIVCSFW,0.151 ± 0.63
22,MRLFVEFSVVLFYSFFNPFF,inactive
23,MRMGMLKMTFFGCSPDLKRL,-0.277 ± 0.38
24,MRQSNDWLFFLTNGTKCGEL,-0.162 ± 0.46
25,MRSDYTSWVWVCVFMLTLGV,-0.679 ± 0.32

row,Substance,amyloid nucleation score
1,MRTRWAVITKMFRRGWEVKV,0.753 ± 0.67
2,MRVNECCKAEGSQGRLARLV,0.97 ± 0.55
3,MRWFNNVFFGYVVSVSRSWN,-1.01 ± 1.1
4,MRYYWMWHKVVM,0.069 ± 0.29
5,MSAMPDWFPLQWNWRLGQVL,1.33 ± 0.18
6,MSFYPRWFSQGMLWCKHHHA,0.516 ± 0.81
7,MSMATTWSIFDWVEREFPFY,-0.933 ± 0.55
8,MSMYDAAIEFLLRCGYVRSY,0.328 ± 0.34
9,MSNDRDVVKVWFFPYDPHQS,-0.378 ± 0.26
10,MSSNYWY,-0.916 ± 1.1
11,MSSPD,6.596 ± 0.034
12,MSTGRCILRPFLGSPRSSVV,inactive
13,MSTIITALEFNG,0.188 ± 0.62
14,MSVSLLSDIN,-0.497 ± 1
15,MTMFTCMWVNRER,4.79 ± 0.057
16,MTQRHFLVDTGRKAR,1.22 ± 0.48
17,MTTYAVLGVPI,-0.421 ± 0.28
18,MTYIRFPLMQGHFWIMSNSK,0.181 ± 0.35
19,MVHMGGDDMCCGIVVWTQAP,11.85 ± 0.066
20,MVPGDRCPIAKNHFFPKINL,-0.335 ± 0.45
21,MWESQGHSLAV,inactive
22,MWGIRSYLVKVL,-0.291 ± 0.76
23,MWISFFCRRYSNIWTGFGYM,-1.09 ± 1
24,MWPHRFM,0.72 ± 0.28
25,MWRFRPLRSDTLRYDGSMGC,-0.021 ± 0.76

row,Substance,amyloid nucleation score
1,MWTIIMGMVILPRNRNL,3.8 ± 0.078
2,MWVWQEPDVWARLCLDGYEK,-0.127 ± 0.45
3,MYEAAGSDREVLRKYEHSSV,-0.22 ± 0.4
4,MYIMLFRFVRIVDLLDCLGN,0.207 ± 0.43
5,MYMARCKASTVSDYQNS,-0.393 ± 0.55
6,MYRVLAICNRTVRKG,-0.562 ± 0.61
7,MYRYSWHDVFCVSKCSEVS,inactive
8,MYYCLGILCGVSTRRGEMSC,1.17 ± 0.41
9,NAIYLVRMDYS,0.138 ± 0.23
10,NALVVLDMFLTIRSSVKGFI,inactive
11,NARICDTLVLKLLTVLLENG,3.44 ± 0.12
12,NARWKDVYHPLTYCFVNLWT,8.115 ± 0.034
13,NATEGFESFWM,inactive
14,NCDRPTLEMSVNRRLFSCPE,0.54 ± 0.27
15,NCECMRWDDF,-0.561 ± 0.38
16,NCFDKMHKIWLFLLSLSIFC,inactive
17,NCGLCGILHHL,8.14 ± 0.072
18,NCQRVWYCWVALSLCETCID,5.168 ± 0.047
19,NCSCIFKNCGFNWVFLGRIL,2.29 ± 0.17
20,NCSSMFCIICKKCCVDAFIL,3.73 ± 0.048
21,NDCRMFRELTYVPHRERC,0.708 ± 0.49
22,NDKTYLPGRHSYGSCYVIVW,0.561 ± 0.64
23,NDLESMYSEGFPLLNTAHK,inactive
24,NDLSWVRLSYHGLVLLGDVM,0.193 ± 0.34
25,NDNFLCSAIVFCMAVFRFGW,inactive

row,Substance,amyloid nucleation score
1,NDRRRRGCRWMVAALVSSVL,0.966 ± 0.53
2,NDSMDHRQSYWGLNPFVYIV,0.158 ± 0.65
3,NEDTAGTRRLHPRYGVADWS,0.88 ± 0.18
4,NEENVEVFCYRVSGSYRCYQ,4.36 ± 0.094
5,NEIFGTVIC,-1.12 ± 1
6,NELEHVFLMRYKC,inactive
7,NELFWFNMSFSCPKWGICNL,4.17 ± 0.043
8,NEPETLWFLLVVWEGINISP,0.561 ± 0.64
9,NFCFVWLSREYHRLALCSGV,inactive
10,NFIDRQLSILYMMFLITEC,-0.774 ± 1.1
11,NFMNKMFALTWCCIDKILCG,-1.1 ± 0.78
12,NFNGYM,-1.09 ± 0.3
13,NFNVQKIFNGDCDLVWRGFV,-1.31 ± 0.76
14,NFQMTVRYWVKDGVESQEIN,4.192 ± 0.033
15,NFRGTVLLAR,0.468 ± 0.74
16,NFSSWSER,-0.885 ± 0.54
17,NFYIATIRTAFLSVMAVRN,3.29 ± 0.089
18,NGADWATRRIWVSVRAVMGR,0.513 ± 0.32
19,NGCSYLERVYVVCYDDMAFG,0.336 ± 0.5
20,NGDMWKHIKRRQVNNRG,0.881 ± 0.67
21,NGFYSGDFWEADGTRLDVTC,0.053 ± 0.79
22,NGGSGNQVMLEVTNLVFK,5.295 ± 0.044
23,NGISYQRMTGNGFVESNGAS,4.683 ± 0.034
24,NGITDV,-0.414 ± 0.45
25,NGLLSRNCIWSFGFESEVEG,inactive

row,Substance,amyloid nucleation score
1,NGLYCFEVLLGSSAFPWTG,3.63 ± 0.082
2,NGLYVAIFSVNLFPPLTKYI,5.422 ± 0.053
3,NGRETEFQFTRVDVWNFSVM,5.065 ± 0.046
4,NGRLWNGFMYCGWTNWFFCV,1.11 ± 0.34
5,NGVDMVVAAGLSGCRWGRIR,0.249 ± 0.39
6,NGVRSWSQHLWKRGRWEG,1.69 ± 0.3
7,NGWLFFWFSIRITTSQVTSL,2.54 ± 0.098
8,NHCPHTKWGTTYCAHGCIHA,0.639 ± 0.46
9,NHWWIHYDDLLLAHDFLHLW,0.055 ± 0.42
10,NIAMSDMDILLMQRAQKWLR,1.1 ± 0.54
11,NIGSWGVSRLSCLYAGLANG,0.549 ± 0.42
12,NILVTRNNKHTSFCYTSLLL,2.22 ± 0.084
13,NIRNRSVNDLIRRDAYRLAL,-0.175 ± 0.8
14,NIRWRGNPFPCIVRNSVGEI,0.097 ± 0.31
15,NISGV,-0.644 ± 0.76
16,NISSLSNNARVIVYFCVRYQ,inactive
17,NITKTRHFLSLNYYNVYAFS,5.05 ± 0.056
18,NIWFKFPHVLNS,-0.063 ± 0.76
19,NKCQMSCNRRYEDMGYDRCM,0.038 ± 0.53
20,NKKIIYDQIFIRMGSFQLN,inactive
21,NKLFPAWLPMCVFWFYGFLA,-0.138 ± 0.53
22,NKRGQFMNMQLEKSLYFQGL,-1.15 ± 0.76
23,NLCDLDRGNEYAWWRVFMRS,4.38 ± 0.11
24,NLDVSYYVIYIKPGRYPV,6.09 ± 0.078
25,NLFNLSCHGLLNERKHLSGV,-0.442 ± 0.44

row,Substance,amyloid nucleation score
1,NLHVHL,3.64 ± 0.056
2,NLISKDIVLHWSRALC,0.339 ± 0.56
3,NLNVGALSSKWVW,inactive
4,NLPSWLVGRRSVWECYRLDT,0.043 ± 1
5,NLQRFSQPKIHRPNTMPLNV,inactive
6,NLRVAALAEGPRVNYRVSGW,0.69 ± 0.43
7,NLSFKSMYLVERWICHRKGR,1.14 ± 0.18
8,NLSFLEPLYWNEVSYFVRCC,6.369 ± 0.023
9,NLVTYDLE,3.79 ± 0.052
10,NLVYYYHLLSRIVNSYNDAL,0.811 ± 0.82
11,NMFGLPKLVLSDLVVRV,1.72 ± 0.15
12,NMIVYC,inactive
13,NMPMQSYTIMVWSLQGMAAG,0.705 ± 0.56
14,NMYTWAE,0.371 ± 0.6
15,NNAMWSWSS,-0.039 ± 0.41
16,NNFSVSFLGVDVF,-0.199 ± 0.74
17,NNFWFKLQIM,6.18 ± 0.064
18,NNINLTYRLYSVLDHYKLYE,2.66 ± 0.088
19,NNLHPDYDMGIGYIIDGDPA,-0.34 ± 0.62
